Assay results published in paper PMC9786777, “Phosphorylation of Thr9 Affects the Folding Landscape of the N-Terminal Segment of Human AGT Enhancing Protein Aggregation of Disease-Causing Mutants” (Molecules, 2022).

Tests used:
[1] = target: alanine:glyoxylate aminotransferase (AGT) NTT, 1-21 (UniProt P21549); experiment: NMR translational diffusion (DOSY), self-association; settings: sites T9
[2] = target: the molecule itself; experiment: dynamic light scattering; holo-AGT as purified, 10 µM (in subunit), Na-HEPES 20 mM NaCl 200 mM pH 7.4, 25 °C; hydrodynamic radius compared with the dimer of the crystal structure

Row | Molecule | binding result [2] | other results
1 | alanine:glyoxylate aminotransferase (AGT) NTT, 1-21 (from UniProt P21549) NTT-AGT T9E-P11L peptide | – | other: hydrodynamic radius ([1]; reference: NTT-AGT P11L peptide): none in both; reference 12 ± 2
2 | alanine:glyoxylate aminotransferase (AGT) NTT, 1-21 (from UniProt P21549) NTT-AGT T9E peptide | – | other: hydrodynamic radius ([1]; reference: NTT-AGT WT peptide): none in both; reference 12 ± 2
3 | alanine:glyoxylate aminotransferase (AGT) WT, holo-protein (enzyme, human, UniProt P21549 1-392, looked up, PLP covalently bound to K209 (holo-protein), alanine:glyoxylate aminotransferase (AGT), human, 392 residues; also called holo-AGT) MASHKLLVTPPKALLKPLSIPNQLLLGPGPSNLPPRIMAAGGLQMIGSMSKDMYQIMDEIKEGIQYVFQTRNPLTLVISGSGHCALEAALVNVLEPGDSFLVGANGIWGQRAVDIGERIGARVHPMTKDPGGHYTLQEVEEGLAQHKPVLLFLTHGESSTGVLQPLDGFGELCHRYKCLLLVDSVASLGGTPLYMDRQGIDILYSGSQKALNAPPGTSLISFSDKAKKKMYSRKTKPFSFYLDIKWLANFWGCDDQPRMYHHTIPVISLYSLRESLALIAEQGLENSWRQHREAAAYLHGRLQALGLQLFVKDPALRLPTVTTVAVPAGYDWRDIVSYVIDHFDIEIMGGLGPSTGKVLRIGLLGCNATRENVDRVTEALRAALQHCPKKKL | binds | –
4 | AGT WT with the T9A mutation, holo-protein (enzyme, human, UniProt P21549 1-392, looked up, PLP covalently bound to K209 (holo-protein), alanine:glyoxylate aminotransferase (AGT), human, 392 residues, control mutation T9A; also called T9A (WT background)) MASHKLLVAPPKALLKPLSIPNQLLLGPGPSNLPPRIMAAGGLQMIGSMSKDMYQIMDEIKEGIQYVFQTRNPLTLVISGSGHCALEAALVNVLEPGDSFLVGANGIWGQRAVDIGERIGARVHPMTKDPGGHYTLQEVEEGLAQHKPVLLFLTHGESSTGVLQPLDGFGELCHRYKCLLLVDSVASLGGTPLYMDRQGIDILYSGSQKALNAPPGTSLISFSDKAKKKMYSRKTKPFSFYLDIKWLANFWGCDDQPRMYHHTIPVISLYSLRESLALIAEQGLENSWRQHREAAAYLHGRLQALGLQLFVKDPALRLPTVTTVAVPAGYDWRDIVSYVIDHFDIEIMGGLGPSTGKVLRIGLLGCNATRENVDRVTEALRAALQHCPKKKL | binds | –
5 | AGT WT with the T9E mutation, holo-protein (enzyme, human, UniProt P21549 1-392, looked up, PLP covalently bound to K209 (holo-protein), alanine:glyoxylate aminotransferase (AGT), human, 392 residues, phosphomimetic T9E; also called T9E (WT background)) MASHKLLVEPPKALLKPLSIPNQLLLGPGPSNLPPRIMAAGGLQMIGSMSKDMYQIMDEIKEGIQYVFQTRNPLTLVISGSGHCALEAALVNVLEPGDSFLVGANGIWGQRAVDIGERIGARVHPMTKDPGGHYTLQEVEEGLAQHKPVLLFLTHGESSTGVLQPLDGFGELCHRYKCLLLVDSVASLGGTPLYMDRQGIDILYSGSQKALNAPPGTSLISFSDKAKKKMYSRKTKPFSFYLDIKWLANFWGCDDQPRMYHHTIPVISLYSLRESLALIAEQGLENSWRQHREAAAYLHGRLQALGLQLFVKDPALRLPTVTTVAVPAGYDWRDIVSYVIDHFDIEIMGGLGPSTGKVLRIGLLGCNATRENVDRVTEALRAALQHCPKKKL | binds | –
